Source: the supplement of paper PMC10724198
± gives the standard deviation of the averaged measurements.

The sequences below were run on Saccharomyces cerevisiae (assay: protein stability index of tFT-peptide fusion (C-terminal peptide) (PSI (0-1 scale)); higher = more stable (slower turnover)). Conditions: genetic background: das1 deletion; temperature: 30 C.
Description: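 MPS profiling in S. cerevisiae of the yeast C-terminome library: the last 12 aa of each annotated ORF are fused to the C-terminus of a sfGFP-mCherry timer, after a GGGS linker. Cells are FACS-sorted into 8 mCherry/sfGFP bins and deep-sequenced. PSI runs from 0 (unstable) to 1 (stable); wild type and das1Δ backgrounds, two technical replicates each.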
In the case of KTFINNVINVYH [FRM2 C-terminal 12 aa], the protein stability index is reported as 0.6589 ± 0.006.
With KTHTEYGYVMVA [YGR137W C-terminal 12 aa] the protein stability index was 0.618 ± 0.012.
With KTSLKITHRRVI [YGL117W C-terminal 12 aa] the protein stability index was 0.7424 ± 0.0067.
Sequence KVSPAAAAKKAL [RPS26B C-terminal 12 aa] has a protein stability index of 0.684 ± 0.0089.
Work on KVWVAGQQVYQI [GUD1 C-terminal 12 aa] yielded a protein stability index of 0.697 ± 0.012.
Work on KWGMEDSPPPYH [MDM34 C-terminal 12 aa] yielded a protein stability index of 0.734 ± 0.028.
For “KYCRVPLPENNR [YEL008C-A C-terminal 12 aa]”, the protein stability index was 0.709 ± 0.015.
KYFCDFLLDPEI [ECM14 C-terminal 12 aa] gave a protein stability index of 0.741 ± 0.0083.
In the case of LANFSNEVAMNN [SWP82 C-terminal 12 aa], the protein stability index is reported as 0.696 ± 0.017.
Sequence LARTDVNFMPWF [TRA1 C-terminal 12 aa] has a protein stability index of 0.72 ± 0.0086.
Work on LCFSKDIQLDFQ [FIG4 C-terminal 12 aa] yielded a protein stability index of 0.714 ± 0.013.
LDKIKTDDTYTS [FYV7 C-terminal 12 aa] showed a protein stability index of 0.7 ± 0.024.
LDLQNQNKKNLW [PIN4 C-terminal 12 aa] gave a protein stability index of 0.707 ± 0.02.
For LEDQDGSLYLNY [PFU1 C-terminal 12 aa], the protein stability index was 0.712 ± 0.011.
In the case of LEHMLEGKEQDE [PRM5 C-terminal 12 aa], the protein stability index is reported as 0.707 ± 0.025.
LEHYSLSTFVCC [YAL045C C-terminal 12 aa] was tested, and the protein stability index was 0.326 ± 0.032.
LESTHDKAIAGK [MNN2 C-terminal 12 aa] showed a protein stability index of 0.6974 ± 0.0069.
In the case of LETAFEEWDYYE [MRX6 C-terminal 12 aa], the protein stability index is reported as 0.731 ± 0.016.
LFGTCLVAMLLF [SPS22 C-terminal 12 aa] gave a protein stability index of 0.461 ± 0.023.
In the case of LFMNAVIKTFKK [DGK1 C-terminal 12 aa], the protein stability index is reported as 0.7 ± 0.0083.
LFQALKLEWEII [TEP1 C-terminal 12 aa] gave a protein stability index of 0.7038 ± 0.0018.
LGDIYTLTNNEL [PHO13 C-terminal 12 aa] was tested, and the protein stability index was 0.701 ± 0.01.
LGDSPSQGRSIS [YPK2 C-terminal 12 aa] was tested, and the protein stability index was 0.685 ± 0.012.
LGFYYIYTLHRA [ERG9 C-terminal 12 aa] gave a protein stability index of 0.505 ± 0.045.
With LHPFREPAKINI [YDR048C C-terminal 12 aa] the protein stability index was 0.665 ± 0.024.
With LIIRNLNAEKER [YFR056C C-terminal 12 aa] the protein stability index was 0.6974 ± 0.0041.
With LITMIRFVNSQK [DCG1 C-terminal 12 aa] the protein stability index was 0.677 ± 0.044.
LKAVCPPEAGFD [VEL1 C-terminal 12 aa] gave a protein stability index of 0.7312 ± 0.0018.
For LKIVEKIIASEQ [YLR419W C-terminal 12 aa], the protein stability index was 0.683 ± 0.013.
With LKMDKLGNYILE [RIO2 C-terminal 12 aa] the protein stability index was 0.717 ± 0.027.
Sequence LKYCKRRHNTPS [GCR1 C-terminal 12 aa] has a protein stability index of 0.747 ± 0.0077.
Work on LLAKKKLKPNLL [YGR293C C-terminal 12 aa] yielded a protein stability index of 0.714 ± 0.028.
With LLASCIETTRNK [LOT6 C-terminal 12 aa] the protein stability index was 0.691 ± 0.008.
LLEDIRANYSLN [YLL056C C-terminal 12 aa] gave a protein stability index of 0.681 ± 0.012.
In the case of LLGFTTGKEVHL [SMF2 C-terminal 12 aa], the protein stability index is reported as 0.6939 ± 0.0046.
“LLLSAFLRNLVP [YAL016C-A C-terminal 12 aa]” gave a protein stability index of 0.685 ± 0.026.
Sequence LLRKLSMKRPFS [APL1 C-terminal 12 aa] has a protein stability index of 0.683 ± 0.016.
With LNIGGNLVTPLC [YSH1 C-terminal 12 aa] the protein stability index was 0.719 ± 0.011.
With LNNKDTKSVRHA [BRR6 C-terminal 12 aa] the protein stability index was 0.667 ± 0.029.
“LPFSVEPTTSRM [YFR036W-A C-terminal 12 aa]” gave a protein stability index of 0.6999 ± 0.0065.
With LPGINSIFKNIF [TOD6 C-terminal 12 aa] the protein stability index was 0.774 ± 0.016.
